Experiments:
Type in all cases: cell-based, human
[1] = system: DUX4-FL (DUX4 ORF + 3'UTR, RenLuc-DUX4-FL); test: Dual-luciferase assay, RenLuc-DUX4-FL reporter co-transfected with miRNA plasmids in HEK293 cells; conditions: positive control, molar ratio not stated, 48 h
Source text: FIG. 1A. Dual-luciferase assay to test the ability of U6.mir-675 to target DUX4. Shown here is the mir-675 expression plasmid used in this study. In this construct, the RNA polymerase III U6 promoter (U6p) controls the expression of mir-675. A terminal signal formed of a stretch of six T nucleotides allows the termination of transcription. On the right, the secondary structure of the mir-675 along with its 5′ and 3′ end flanking sequences (Boxed) is shown. At the 5′ end, the flanking sequence is of 40 nucleotides long and at the 3′ end, the flanking sequence is of 47 nucleotides long starting from the nucleotide at position 114. U6.mir-675 was tested to target DUX4 using the dual-luciferase assay. To do this, DUX4 was cloned in the RenLuc-DUX4-FL expression plasmid (FIG. 1A), i.e., DUX4-FL (DUX4 ORF without V5 tag+3′UTR) was PCR amplified using CMV.DUX4-FLΔV5 as template with the following primers: forward: 5′ […] 3′ (SEQ ID NO: 125), reverse: 5′ […] 3′ (SEQ ID NO: 126). The PCR product was then cloned into a previously designed RenLuc SD5 mutant plasmid using XhoI/SpeI restriction sites and the RenLuc.SD5 mutant-DUX4 3′UTR plasmid backbone. The Renilla luciferase gene has a splicing donor mutation (*SID5) that prevents the alternative splicing of the DUX4-FL mRNA (Ansseau et al. (2015) PLoS One, 10, e0118813). The dual-luciferase assay was performed by co-transfecting the RenLuc-DUX4-FL and U6.mir-675 expression plasmids into the human embryonic kidney HEK293 cells. 48 hours after transfection, both the Renilla and Firefly luciferase activities were measured. The latter was used to normalize for Renilla luciferase activity. The non-targeting RenLuc control backbone plasmid (RenLuc) was co-transfected with U6.mir-675 and the RenLuc-DUX4-FL co-transfected with U6.milacZ as negative control reactions. In the other reactions, mir-675 reduced the relative Renilla luciferase activity by 24±3% (P<0.0001, ANOVA, N=3), 28±2% (P<0.0001, ANOVA, N=3) and 33±3% (P<0.0001, ANOVA, N=3) at a molarity ratio U6.mir-675: RenLuc-DUX4-FL (n:n) of 10 to 1, 20 to 1 and 40 to 1, respectively. All readings were normalized to the U6.milacZ (negative control). Six replicate data were averaged per experiment and individual experiments were performed in triplicate (N=3). Results were reported as the average relative Renilla luciferase activity±SEM for all combined experiments. […] A representative western blot gel and the quantification results of three independent western blot replicates (N=3) performed on 15 μg of total protein extracts collected from HEK293 cells 24 hours after co-transfection with the AAV.CMV.DUX4-FL and the U6.mir-675 or the human long non-coding H19 expression plasmid (CMV.H19) is shown here. […]

[2] = system: DUX4 ORF (RenLuc-DUX4 ORF); test: Dual-luciferase assay, RenLuc-DUX4 ORF reporter co-transfected with miDUX4 plasmids in HEK293 cells; conditions: HEK293, 24 h
Procedure: Dual Luciferase Assay. (See also FIGS. 1A, 3A-B, 4A-B, 5B, and 16B-C.) This assay was performed as previously described by Wallace et al. (Mol. Ther. Methods Clin. Dev. 8: 121-30 (2018)) and following the dual-luciferase reporter assay system (Promega) protocol with some modifications. All plasmid constructs had the psiCheck2 dual luciferase reporter plasmid (Promega) as backbone that contains separate Renilla and Firefly luciferase genes, where the former contains the various target sequences used in the experiments of the disclosure, and the latter serves as a transfection normalizer (control). All DUX4 and control sequences were cloned downstream of the Renilla luciferase stop codon, serving as a 3′UTR. HEK293 cells were pre-plated 24h before transfection. Cells were then co-transfected with the luciferase DUX4 reporter and individual microRNA expression plasmids in an increasing luciferase DUX4 reporter:miRNA molar ratio using Lipofectamine 2000 (Invitrogen). Luciferase activity was measured 24h or 48h after transfection. DUX4 gene silencing was determined as previously described [Wallace et al., Mol. Ther. Methods Clin. Dev. 8: 121-30 (2018)]. Triplicate data were averaged per experiment, and individual experiments were performed 3 times. Results were reported as the average ratio of Renilla to Firefly luciferase activity±SEM for all combined experiments.
Accordingly, two new mi405 constructs, i.e., mi405F and mi405NF, were designed. […] To assess the inhibition efficiency of the three mi405 constructs, a dual-luciferase assay and western blot analysis, similar to what was described for mir-675, were carried out. In the dual-luciferase assay, U6.mi405, U6.mi405F, or U6.mi405NF was co-transfected into HEK293 cells along with the RenLuc-DUX4 ORF (a construct expressing the open reading frame of DUX4 as a 3′UTR sequence of Renilla Luciferase). 24 h after transfection, U6.mi405, U6.mi405F, and U6.mi405NF reduced the relative Renilla luciferase activity by 85±1%, 89±1%, and 66±1% (P<0.0001, ANOVA, N=3), respectively, when tested against the RenLuc-DUX4 ORF construct.

[3] = system: DUX4 protein; test: Western blot of V5-tagged DUX4 protein in co-transfected HEK293 cells; conditions: 1:4 DUX4:mi405 molar ratio; HEK293; 24 h; normalized to miGFP; N=2

B1: U6.mi405: original artificially designed miDUX4 (mi405) U6 expression plasmid, Wallace et al. (nucleic acid)
DNA: ACGCCGCCATCTCTAGGCCCGCGCCGGCCCCCTCGCACAGACTTGTGGGAGAAGCTCGGCTACTCCCCTGCCCCGGTTAATTTGCATATAATATTTCCTAGTAACTATAGAGGCTTAATGTGCGATAAAAGACAGATAATCTGTTCTTTTTAATACTAGCTACATTTTACATGATAGGCTTGGATTTCTATAAGAGATACAAATACTAAATTATTATTTTAAAAAACAGCACAAAAGGAAACTCACCCTAACTGTAAAGTAATTGTGTGTTTTGAGACTATAAATATCCCTTGGAGAAAAGCCTTGTTTGCGTTTAGTGAACCGTCAGATGGTACCGTTTAAACTCGAGTGAGCGATCCAGGATTCAGATCTGGTTTCTGTAAAGCCACAGATGGGAAACCAGATCTGAATCCTGGACTGCCTACTAGAGCGGCCGCCACAGCGGGGAGATCCAGACATGATAAGATACATTTTTT
reduction of relative Renilla luciferase activity [1]: 80±2%
reduction of relative Renilla luciferase activity ([2]; 1:4 DUX4:mi405 molar ratio, normalized to miGFP): 85±1%
reduction of Renilla luciferase activity ([2]; DUX4:mi405 molar ratio 2 to 1, normalized to U6.miGFP): 62±2%
reduction of DUX4 protein levels [3]: 79±1%
